The values that follow come from patent US20110009319A1 (RESEARCH DEVELOPMENT FOUNDATION, published 2011).

Experiment [1] addresses T1, activin-A (UniProt P08476 311-426, [125I] label in the crosslinking assays (site not stated)).
T1 construct: The ~14 kDa monomer implies the processed mature chain; Unlabelled protein was used in the luciferase assays; also called bA-bA
T1 sequence (looked up): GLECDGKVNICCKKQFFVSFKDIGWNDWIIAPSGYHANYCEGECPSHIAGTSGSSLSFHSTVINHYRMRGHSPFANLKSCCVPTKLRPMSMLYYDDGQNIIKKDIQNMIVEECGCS
Put plainly: activin crosslinking assays. As to the method:
Cells were transfected with […] DNA per well with ratios of 0.5 mg TbRII/0.5 mg ALK5/3 mg Cripto unless otherwise indicated for [¹²⁵I]-TGF-b1 crosslinking or […] ActRII/1 mg Cripto/1 mg vector for [¹²⁵I]activin-A crosslinking. As necessary, empty vector was used to keep the amount of DNA transfected constant at […]. […] Cells were then rinsed in HDB, incubated in HDB containing 0.5 mM disuccinylsuberate (DSS) for 30 min on ice, rinsed in HDB and then solubilized in lysis buffer (TBS containing 1% NP-40, 0.5% deoxycholate and 2 mM EDTA) for 1 h on ice. Solubilized, crosslinked complexes were incubated for approximately 24 h at 4° C. with […] of either anti-FLAG (M2), anti-His or anti-myc antibodies. Immune complexes were precipitated using protein-G agarose and analyzed using SDS-PAGE and autoradiography.

In experiment [2] the target is T1, activin-A. Put plainly: not described at this place.

B1: Cripto DEGF mutant (receptor)
chain: FEFGPVAGRDLAIRDNSIWDQKEPAVRDRSFQFVPSVGIQNSKEHCGSILHGTWLPKKCSLCRCWHGQLHCLPQTFLPGCD
modifications: C-terminal GPI anchor
B1: in the experiment with activin-A [1], the binding result is reported as “no binding”.

B2: Cripto EGF1•2mCFC mutant (N69G, T72A, R88G, E91G, H104G, W107G) (receptor)
chain: FEFGPVAGRDLAIRDNSIWDQKEPAVRDRSFQFVPSVGIQNSKSLNKTCCLGGGACILGSFCACPPSFYGGNCGHDVRKEHCGSILGGTGLPKKCSLCRCWHGQLHCLPQTFLPGCD
modifications: C-terminal GPI anchor
In the case of B2, the binding result with activin-A [2] was “no binding”.
